These results are taken from article PMC6289497 (ACS Omega, 2018).

Series [1] deals with human metapneumovirus (HMPV) strain CAN97-83 M2-1 protein (human metapneumovirus strain CAN97-83). Description: Gdm.HCl-induced equilibrium denaturation.
Series [2] deals with the molecule itself. Description: SEC.

As a reminder, the stoichiometry N is a count of units in the complex or per binding partner. Molecule “human metapneumovirus (HMPV) strain CAN97-83 M2-1 protein (natural protein)” showed a stoichiometry N in series [1] of 4.

B1: H25A RSV-M2-1 (natural protein)
chain: MSRRNPCKFEIRGHCLNGKRCHFSANYFEWPPHALLVRQNFMLNRILKSMDKSIDTLSEISGAAELDRTEEYALGVVGVLESYIGSINNITKQSACVAMSKLLTELNSDDIKKLRDNEELNSPKIRVYNTVISYIESNRKNNKQTIHLLKRLPADVLKKTIKNTLDIHKSITINNPKESTVSDTNDHAKNNDTT
B1: the binding result in series [2] is “binds”.

B2: H25C RSV-M2-1 (natural protein)
chain: MSRRNPCKFEIRGHCLNGKRCHFSCNYFEWPPHALLVRQNFMLNRILKSMDKSIDTLSEISGAAELDRTEEYALGVVGVLESYIGSINNITKQSACVAMSKLLTELNSDDIKKLRDNEELNSPKIRVYNTVISYIESNRKNNKQTIHLLKRLPADVLKKTIKNTLDIHKSITINNPKESTVSDTNDHAKNNDTT
Regarding B2, the binding result in series [2] was “binds”.
